According to the supplement of paper PMC11246515:
± gives the standard deviation of the averaged measurements.

Experiment: total protein half-life in vivo (active degradation + dilution); higher = more stable protein
[1] = E. coli NCM3722 delta-clpP delta-lon delta-hslV, growth: N-lim chemostat, doubling time 6 h
[2] = E. coli NCM3722 delta-clpP, growth: N-lim chemostat, doubling time 6 h
[3] = E. coli NCM3722 delta-hslV, growth: N-lim chemostat, doubling time 6 h
[4] = E. coli NCM3722 delta-lon, growth: N-lim chemostat, doubling time 6 h
[5] = E. coli NCM3722 delta-smpB, growth: N-lim chemostat, doubling time 6 h
[6] = wild type E. coli NCM3722, growth: C-lim chemostat, doubling time 3 h
[7] = wild type E. coli NCM3722, growth: C-lim chemostat, doubling time 6 h
[8] = wild type E. coli NCM3722, growth: C-lim chemostat, doubling time 12 h
[9] = wild type E. coli NCM3722, growth: N-lim chemostat, doubling time 6 h
[10] = wild type E. coli NCM3722, growth: N-lim chemostat, doubling time 12 h
[11] = wild type E. coli NCM3722, growth: P-lim chemostat, doubling time 6 h
[12] = wild type E. coli NCM3722, growth: P-lim chemostat, doubling time 12 h

**Q.** With “MEIIMRNLCFLLTLVATLLLPGRLIAAALPQDEKLITGQLDNGLRYMIYPHAHPKDQVNLWLQIHTGSLQEEDNELGVAHFVEHMMFNGTKTWPGNKVIETFESMGLRFGRDVNAYTSYDETVYQVSLPTTQKQNLQQVMAIFSEWSNAATFEKLEVDAERGVITEEWRAHQDAKWRTSQARRPFLLANTRNLDREPIGLMDTVATVTPAQLRQFYQRWYQPNNMTFIVVGDIDSKEALALIKDNLSKLPANKAAENRVWPTKAENHLRFNIINDKENRVNGIALYYRLPMVQVNDEQSFIEQAEWSMLVQLFNQRLQERIQSGELKTISGGTARSVKIAPDYQSLFFRVNARDDNMQDAANALMAELATIDQHGFSAEELDDVKSTRLTWLKNAVDQQAERDLRMLTSRLASSSLNNTPFLSPEETYQLSKRLWQQITVQSLAEKWQQLRKNQDAFWEQMVNNEVAAKKALSPAAILALEKEYANKKLAAYVFPGRNLSLTVDADPQAEISSKETLAENLTSLTLSNGARVILAKSAGEEQKLQIIAVSNKGDLSFPAQQKSLIALANKAVSGSGVGELSSSSLKRWSAENSVTMSSKVSGMNTLLSVSARTNNPEPGFQLINQRITHSTINDNIWASLQNAQIQALKTLDQRPAEKFAQQMYETRYADDRTKLLQENQIAQFTAADALAADRQLFSSPADITFVIVGNVAEDKLVALITRYLGSIKHSDSPLAAGKPLTRATDNASVTVKEQNEPVAQVSQWKRYDSRTPVNLPTRMALDAFNVALAKDLRVNIREQASGAYSVSSRLSVDPQAKDISHLLAFTCQPERHDELLTLANEVMVKRLAKGISEQELNEYQQNVQRSLDIQQRSVQQLANTIVNSLIQYDDPAAWTEQEQLLKQMTVENVNTAVKQYLSHPVNTYTGVLLPK” as the sequence, how does the “total protein half-life in vivo” value [1] read?
**A.** Its value is 4.62 ± 0.69 h.

**Q.** What about the “total protein half-life in vivo” value [2] of the same sequence?
**A.** Its value is 5.77 ± 0.74 h.

**Q.** And the “total protein half-life in vivo” value [3]?
**A.** Its value is 4.77 ± 1.3 h.

**Q.** What about the “total protein half-life in vivo” value [4] of the same sequence?
**A.** Its value is 5.5 h.

**Q.** What about the “total protein half-life in vivo” value [5] of the same sequence?
**A.** The value was 4.55 ± 0.17 h.

**Q.** And the “total protein half-life in vivo” value [6]?
**A.** The value was 2.905 ± 0.0097 h.

**Q.** And the “total protein half-life in vivo” value [7]?
**A.** Its value is 5.9 ± 0.39 h.

**Q.** And the “total protein half-life in vivo” value [8]?
**A.** Its value is 10.2 ± 0.87 h.

**Q.** And the “total protein half-life in vivo” value [9]?
**A.** The value was 5.41 ± 0.45 h.

**Q.** What about the “total protein half-life in vivo” value [10] of the same sequence?
**A.** Its value is 9.96 ± 0.61 h.

**Q.** And the “total protein half-life in vivo” value [11]?
**A.** The value was 4.84 ± 0.2 h.

**Q.** And the “total protein half-life in vivo” value [12]?
**A.** Its value is 9.3 ± 0.6 h.

**Q.** With “MATIHVDGKEYEVNGADNLLEACLSLGLDIPYFCWHPALGSVGACRQCAVKQYQNAEDTRGRLVMSCMTPASDGTFISIDDEEAKQFRESVVEWLMTNHPHDCPVCEEGGNCHLQDMTVMTGHSFRRYRFTKRTHRNQDLGPFISHEMNRCIACYRCVRYYKDYADGTDLGVYGAHDNVYFGRPEDGTLESEFSGNLVEICPTGVFTDKTHSERYNRKWDMQFAPSICQQCSIGCNISPGERYGELRRIENRYNGTVNHYFLCDRGRFGYGYVNLKDRPRQPVQRRGDDFITLNAEQAMQGAADILRQSKKVIGIGSPRASVESNFALRELVGEENFYTGIAHGEQERLQLALKVLREGGIYTPALREIESYDAVLVLGEDVTQTGARVALAVRQAVKGKAREMAAAQKVADWQIAAILNIGQRAKHPLFVTNVDDTRLDDIAAWTYRAPVEDQARLGFAIAHALDNSAPAVDGIEPELQSKIDVIVQALAGAKKPLIISGTNAGSLEVIQAAANVAKALKGRGADVGITMIARSVNSMGLGIMGGGSLEEALTELETGRADAVVVLENDLHRHASAIRVNAALAKAPLVMVVDHQRTAIMENAHLVLSAASFAESDGTVINNEGRAQRFFQVYDPAYYDSKTVMLESWRWLHSLHSTLLSREVDWTQLDHVIDAVVAKIPELAGIKDAAPDATFRIRGQKLAREPHRYSGRTAMRANISVHEPRQPQDIDTMFTFSMEGNNQPTAHRSQVPFAWAPGWNSPQAWNKFQDEVGGKLRFGDPGVRLFETSENGLDYFTSVPARFQPQDGKWRIAPYYHLFGSDELSQRAPVFQSRMPQPYIKLNPADAAKLGVNAGTRVSFSYDGNTVTLPVEIAEGLTAGQVGLPMGMSGIAPVLAGAHLEDLKEAQQ” as the sequence, how does the “total protein half-life in vivo” value [1] read?
**A.** Its value is 6.02 ± 0.15 h.

**Q.** What about the “total protein half-life in vivo” value [2] of the same sequence?
**A.** Its value is 5.98 ± 0.38 h.

**Q.** And the “total protein half-life in vivo” value [3]?
**A.** The value was 6.1 ± 0.34 h.

**Q.** And the “total protein half-life in vivo” value [4]?
**A.** The value was 5.92 ± 0.37 h.

**Q.** And the “total protein half-life in vivo” value [5]?
**A.** The value was 5.61 ± 0.29 h.

**Q.** And the “total protein half-life in vivo” value [6]?
**A.** Its value is 3.14 ± 0.12 h.

**Q.** And the “total protein half-life in vivo” value [7]?
**A.** Its value is 5.723 ± 0.011 h.

**Q.** And the “total protein half-life in vivo” value [8]?
**A.** Its value is 10.3 ± 0.23 h.

**Q.** What about the “total protein half-life in vivo” value [9] of the same sequence?
**A.** The value was 5.63 ± 0.15 h.

**Q.** And the “total protein half-life in vivo” value [10]?
**A.** The value was 11 ± 0.17 h.

**Q.** What about the “total protein half-life in vivo” value [11] of the same sequence?
**A.** The value was 5.72 ± 0.076 h.

**Q.** And the “total protein half-life in vivo” value [12]?
**A.** The value was 10.25 ± 0.082 h.

**Q.** For “MNKNMAGILSAAAVLTMLAGCTAYDRTKDQFVQPVVKDVKKGMSRAQVAQIAGKPSSEVSMIHARGTCQTYILGQRDGKAETYFVALDDTGHVINSGYQTCAEYDTDPQAAK [P0ADB1]”, which “total protein half-life in vivo” value [1] is on record?
**A.** Its value is 5.54 ± 0.094 h.

**Q.** What about the “total protein half-life in vivo” value [2] of the same sequence?
**A.** The value was 5.7 ± 0.36 h.

**Q.** And the “total protein half-life in vivo” value [5]?
**A.** The value was 5.74 ± 0.22 h.

**Q.** And the “total protein half-life in vivo” value [6]?
**A.** Its value is 3.03 ± 0.22 h.

**Q.** What about the “total protein half-life in vivo” value [7] of the same sequence?
**A.** The value was 6.14 ± 0.68 h.

**Q.** What about the “total protein half-life in vivo” value [8] of the same sequence?
**A.** Its value is 10.4 ± 1.6 h.

**Q.** And the “total protein half-life in vivo” value [10]?
**A.** The value was 12.3 ± 2.4 h.

**Q.** What about the “total protein half-life in vivo” value [11] of the same sequence?
**A.** Its value is 5.73 ± 0.26 h.

**Q.** What about the “total protein half-life in vivo” value [12] of the same sequence?
**A.** The value was 12.6 ± 0.59 h.

**Q.** Which results are given for “MITNYEATVVTTDDIVHEVNLEGKRIGYVIKTENKETPFTVVDIDGPSGNVKTLDEGVKKMCLVHIGKNLPAEKKAEFLATLIAMKLKGEI”?
**A.** total protein half-life in vivo [7]: 5.13 h; total protein half-life in vivo [8]: 10.3 h

**Q.** With “MAFRMSEQPRTIKIYNLLAGTNEFIGEGDAYIPPHTGLPANSTDIAPPDIPAGFVAVFNSDESSWHLVEDHRGKTVYDVASGNALFISELGPLPENVTWLSPEGEFQKWNGTAWVKDTEAEKLFRIREAEETKNNLMQVASEHIAPLQDAADLEIATEEEISLLEAWKKYRVLLNRVDTSTAQDIEWPALP” as the sequence, how does the “total protein half-life in vivo” value [1] read?
**A.** Its value is 3.03 h.

**Q.** What about the “total protein half-life in vivo” value [2] of the same sequence?
**A.** The value was 2.56 h.

**Q.** What about the “total protein half-life in vivo” value [3] of the same sequence?
**A.** Its value is 1.99 h.

**Q.** And the “total protein half-life in vivo” value [5]?
**A.** Its value is 1.99 h.

**Q.** What about the “total protein half-life in vivo” value [6] of the same sequence?
**A.** The value was 1.9 h.

**Q.** And the “total protein half-life in vivo” value [7]?
**A.** Its value is 2.42 ± 0.94 h.

**Q.** What about the “total protein half-life in vivo” value [8] of the same sequence?
**A.** Its value is 5.44 h.

**Q.** What about the “total protein half-life in vivo” value [9] of the same sequence?
**A.** Its value is 3.48 h.

**Q.** And the “total protein half-life in vivo” value [11]?
**A.** Its value is 3.08 h.

**Q.** And the “total protein half-life in vivo” value [12]?
**A.** Its value is 7.47 ± 0.83 h.
